1 molecule from publication PMC8882189, “Identification of Nanog as a novel inhibitor of Rad51” (Cell Death & Disease, 2022) can be followed below.

This assay deals with T1, His-tagged Rad51 (mouse, UniProt Q08297 1-339).
T1 construct: Rad51, mouse; The bacterial expression construct is not described; source: bacterially expressed, purified (Ni superflow beads)
T1 sequence (looked up): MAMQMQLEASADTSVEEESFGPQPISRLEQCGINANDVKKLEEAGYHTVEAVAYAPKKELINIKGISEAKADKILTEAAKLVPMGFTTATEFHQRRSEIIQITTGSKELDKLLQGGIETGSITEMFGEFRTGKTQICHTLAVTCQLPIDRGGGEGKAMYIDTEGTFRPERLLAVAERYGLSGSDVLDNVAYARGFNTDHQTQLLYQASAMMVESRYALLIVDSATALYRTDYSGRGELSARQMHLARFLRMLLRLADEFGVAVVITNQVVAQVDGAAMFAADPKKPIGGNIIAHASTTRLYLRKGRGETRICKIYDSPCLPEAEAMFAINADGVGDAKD
In words: pull-down; purified GST-tagged Nanog or fragments on glutathione-sepharose beads, incubated with purified His-tagged Rad51 at 4 °C overnight; washed 4 times with lysis buffer; western blot with anti-Rad51. The note with it: both partners purified. In general terms: A western blot detects proteins with antibodies after separation by electrophoresis.

B1: GST-tagged Nanog (natural protein, mouse, UniProt Q80Z64 1-305, looked up)
chain: MSVGLPGPHSLPSSEEASNSGNASSMPAVFHPENYSCLQGSATEMLCTEAASPRPSSEDLPLQGSPDSSTSPKQKLSSPEADKGPEEEENKVLARKQKMRTVFSQAQLCALKDRFQKQKYLSLQQMQELSSILNLSYKQVKTWFQNQRMKCKRWQKNQWLKTSNGLIQKGSAPVEYPSIHCSYPQGYLVNASGSLSMWGSQTWTNPTWSSQTWTNPTWNNQTWTNPTWSSQAWTAQSWNGQPWNAAPLHNFGEDFLQPYVQLQQNFSASDLEVNLEATRESHAHFSTPQALELFLNYSVTPPGEI
notes: Nanog, mouse; The bacterial expression construct is not described; also called full-length Nanog; FL; source: E. coli BL21, purified (Glutathione-Sepharose)
Take B1: the binding result is “binds”.
